{"source": "paper PMC9188649", "about": "(Molecular cell, 2022)", "proteins": {"B1": {"name": "hSARM1 (residues 28–724), sample for cryo-EM (enzyme, human, UniProt Q6SZW1 28-724, looked up)", "chain": "LAVPGPDGGGGTGPWWAAGGRGPREVSPGAGTEVQDALERALPELQQALSALKQAGGARAVGAGLAEVFQLVEEAWLLPAVGREVAQGLCDAIRLDGGLDLLLRLLQAPELETRVQAARLLEQILVAENRDRVARIGLGVILNLAKEREPVELARSVAGILEHMFKHSEETCQRLVAAGGLDAVLYWCRRTDPALLRHCALALGNCALHGGQAVQRRMVEKRAAEWLFPLAFSKEDELLRLHACLAVAVLATNKEVEREVERSGTLALVEPLVASLDPGRFARCLVDASDTSQGRGPDDLQRLVPLLDSNRLEAQCIGAFYLCAEAAIKSLQGKTKVFSDIGAIQSLKRLVSYSTNGTKSALAKRALRLLGEEVPRPILPSVPSWKEAEVQTWLQQIGFSKYCESFREQQVDGDLLLRLTEEELQTDLGMKSGITRKRFFRELTELKTFANYSTCDRSNLADWLGSLDPRFRQYTYGLVSCGLDRSLLHRVSEQQLLEDCGIHLGVHRARILTAAREMLHSPLPCTGGKPSGDTPDVFISYRRNSGSQLASLLKVHLQLHGFSVFIDVEKLEAGKFEDKLIQSVMGARNFVLVLSPGALDKCMQDHDCKDWVHKEIVTALSCGKNIVPIIDGFEWPEPQVLPEDMQAVLTFNGIKWSHEYQEATIEKIIRFLQGRSSRDSSAGSDTSLEGAAPMGPT"}}, "target": "the molecule itself", "test": "cryo-EM structure", "data": [{"protein": "B1", "values": [{"measurement": "stoichiometry N", "result": 8}]}]}
